Experimental data as given in the nanobody polyreactivity screen of Harvey et al. (2022).

Assay: yeast display, Sf9 membrane polyspecificity reagent, FACS + sequencing; frameworks hold sequencing errors
Outline: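 A nanobody's polyreactivity label depends on the gate it was sorted from. Yeast display cells were stained with 10% biotinylated, detergent-solubilized Sf9 membrane reagent for 1 hour at 4 °C, enriched on streptavidin microbeads and sorted by FACS. The low and high (top ~1%) gates were set on anti-HA fluorescence for expression and streptavidin fluorescence for reagent binding.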

Row | Sequence | polyreactivity (PSR sort gate)
1 | QVQLVESGGGLVQAGGSLRLSSAASGFTFRRYAMGWYRQAPGKERELVAAISIRGGRTYYADSVNGRFTISRDNAKNTVYLQMNSLKPEDTAVNYCAADGVYALDVESDYWGQGTQVTVSS | high polyreactivity
2 | QVQLVESGGGLVQAGGSIRLSCAASGRTFSAYAMGWYRQEPGKVRELVARITSVDSTNYADSVKGRFTISRDNAKNTVYLQMNSLKPEDTAVYYSNATFGYPLVDYDDYWGQGTQVTVSS | low polyreactivity
3 | QVQLVESGGGLVQAGGSLRLSCAASGSTFNLYAIGWYRQAPGKEREFVAAIRGRGGNTYADSVKRRFTISRDNAKNTVYLQMNSLKPEDTAVYYCAAPLLRDLRSPYSYKYWGQGTQVTVSS | low polyreactivity
4 | QVQLVESGGGLVQAGGSLRLSCAASGRTFQLYAMGWYRQAPGKQRELVAAIRTGGSTNYADSVKGRFTISRDNAKNTVYLQMNSLKPEDTAVYYCAAVQRTDRSAHYSWGQGTQVTVSS | low polyreactivity
5 | QVQLVESGGGLVQAGGSLRLSCAASGFTFGTYAMGWYRQAPGKERELVARISRRSGSTYYADSVKGRFTISRDKAKNTVYLQMNSLKPEDTAVYYCAADSRAKRYYWGQGTQVTVSS | high polyreactivity
6 | QVQRVESGGGLVQAGGSLRLSCAASGYTFYFYDMGWYRQAPGKERELVAAITSSGGSTYYADSVKGRFTISRDNAKNTVYLQMNSLKPEDTAVYYCNALITYSSDYWGQGTQVTVSS | low polyreactivity
7 | QVQLVESGGGLVQAGGSLRLSCAASGRIFPYNAMGWYRQAPGKERELVAAISGRGGSTYYADSVKGRFTISRDNAKNTVYLQMNSLKPEDTAVYYCAKRYVYPGAKHRFRGYDYWGQGTQVTVSS | high polyreactivity
8 | PVQLVESGGGLVQAGGSLRLSCAASGYTFSYNAMGWYRQAPGKERELVAAIYRGGRTYYADSVKGRFTISRDNAKNTVYLQMNSLKPEDTAVYYCAAKRWTTKNGFYEYPYYYWGQGTQVTVSS | high polyreactivity
9 | QVQLVESGGGLVQAGGSLSLSCAASGRIFQPYAMGWYRQAPGKERELVARITSGGSTYADSVKGRFTISRDNAKNTVYLQMNSLKPEDTAVYYCAVRFPWYYRGYAYDYWGQGTQVTVSS | high polyreactivity
10 | QVQLVESGGGLVQAGGSLRLSCAASGSTFHYNAMGWYRQAPGKERELVAAIDNGGRTNYADSVKGRFTISRDNAKNTVYLQMNSLKPEDPAVYYCATRGYFWSFTTSYYHYYYWGQGTQVTVSS | high polyreactivity
11 | QVQLVESGGGLVQAGGSLRLSCAASGRTFFGYAMGWYRQAPGKEREFVAAISGSGGSTYYADSVKGRFTISRDNAKNTVYLQMNSLKPEDTAVYYCNGDYWGEYYYWGQGTQVSVSS | low polyreactivity
12 | QVHLVESGGGLVQAGGSLRLSCAASGSIFAINAMGWYRQAPGKERELVARISWSGGRTYYADSVKGRFTISRDNAKNTVYLQMNSLKPEDTAVYYCAKRYYKSLNRDEFDSWGQGTQVTVSS | high polyreactivity
13 | QVQLVESGGGLVQAGVSLRLSCAASGSIFTQYAMGWSRQAPGKERELVAAISWSGARTYYADSVKGRFTISRDNAKNTVYIQMNSLKPEDTAVYYWAADIIRPVTVDYWGQGTQVTVSS | high polyreactivity
14 | QVQLVEAGGGLVQAGGSLRLSCAASGFIFPSYVRGWYSQAPGKERELVATISRSGGSTYYADSVKGRFTISRDNAKNTGYLQMNSLKPEDTAVYYCATRRRGPYSPYSPYDYWGQGTQVTVSS | high polyreactivity
15 | QVQLVESGGGLVQAGGSLRLSCAASGRTFNTYAMGWYRQAPGKERELVADISVSGGRTYYADSVKGRFTISRDNAKNTVYLQMNSLKPEDNAVYYCAKRIRYNWTFDYWGQGTQVTVSS | low polyreactivity
16 | QVQHVESGGGIVQAGGSLRLSCAASGITFDEYAMGWYRQAPGKEWELVATITWSGGSTYYADSVKGRFTISRVNAKNTVDLKMNSLKPEDSAVYYCAARDSGRYDDFGYWGQGTQVTVSS | low polyreactivity
17 | QVQLVESGGGLVQAGGSLRLRCAASGSIFPLYAMGWYRQAPGKERELVAAITSSGGRTYYADSVKGRFTISRDNAKNTVYLQMNSLKPEDTAVYYCNAGYYVRRDYDYWGQGTQVTVSS | low polyreactivity
18 | QVQLVETGGGLVQAGGSLRLSCAASGSTIYLYAAMGLYRQAPGKESELVAAISGSGGSTFYADSVKGRFTISRDNAKNTVYLQMNSLKPEDTAVYYCAADKRYPYETYRPSVSASDSWGQGTQVTVSS | low polyreactivity
19 | QVQLVESGGGLVQAGGSLRLSCAASGSIFRGNAMGWYRQAPGKEREMVAAISVSGSRTYYADSVKGRFTISRDNAKNTVYLQMNSLIPEDTAVYYCNAVLRVKGSGDFDYWGEGTQVTVSS | high polyreactivity
20 | QVQLVESGGGIVQAGGSLRLSSAASGITFGANAMGWYRQAPGKERELVADITWSGGDTYYADSVKGRFTSSRDNAKNSVYLQMNSLKPEDTAVYYCNALQPGLGSPLGEYDYWGQGTQVTVSS | low polyreactivity
21 | QVQLVETGGGLVQAGGSLRLSCAASGSTFWYNAMGWYRQAPGKESELVAAISRSGATTYYADSVKGRFTISRDNAKNTVYLQMNSLKPEDTAVYYCNKVRQYRYRGYTFDYWGQGTQVSVSS | low polyreactivity
22 | QVQLVESGGGLVQAGGSLRLSCAASGFTFPGNTMGWYRQAPGKERELVAVISRSGGRSYYADSVKGRFTISRDNAKNTVYLQMNSLKPEDTAVYYCAADTSVRFDYWGQGTQVTVSS | high polyreactivity

Row | Sequence | polyreactivity (PSR sort gate)
23 | QVQLVESGGGLVQAGGSLRLSCAASGFTFSSYYMGWYRQAPGKERELVAAITSSGDDTYYADSVKGRFTISRDNAKNTVYLQMNSLKPEDTAVYYCAAEYTEGYTHDYGGQGTQVTVSS | low polyreactivity
24 | QVQLVESGGGLVQAGGSLRLSCAASGFTFASNGRGGYRQAPGKERELVAVIDWSDDSTYYADSVKGRFTISRDNAKNTVYLQMNSLKPEDTAVYYCNADDWWGGYDYWGQGTQVTVSS | low polyreactivity
25 | QVQHVESGGGLVQAGGSLRLSCAASGRTYGYYAMGWYRQAPGKERELVAAITRTGGSTHYADSVKGRFTISRDNAKNTVYLQMNSLKPEDTAVYYFARTSRHVRYDYWGEGTQVTVSS | low polyreactivity
26 | QYQLVESGGGLVQAGGSLRLSCAASGFIFSTNAMGWYRQAPGKERELVAAISRRGGNTYYADSLKGRFTISRDNAKNTVYLQMNSLKPEDTAVYYCAKRGVYGYRYYYWGQGTQVTVSS | high polyreactivity
27 | QVQLVESGGGLVQAGGSLRLSCAASGNTFSQYAMGWYRQAPGKERELVATISKSSGSTSYADSVKGRFTISRDNAKNTVYLQMNSLKPEDTAVYYCNADSSDVYHHLGVLFFSTWYDYWGQGTQVTVSS | low polyreactivity
28 | QVQLVESGGGLVQAGGSLRLSCAASGSTFPTYAMGWYRPAPGKERELVAAITRGGRTYYADSVKGRFTISRDNAKNTVYLQMNSLKPEDTAVYYCAAVYYGAAQYNYWGQGTQVTVSS | high polyreactivity
29 | QVQLVESGGGLVQAGGSLRLSCAASGIIFYYAMGWYRQAPGKERELVASIRWSGDSTYYADSVKGRFTISRDNAKNTVYLQMNSLKPEDTAVYYCAAEPDSAVSYVSWRDYWGQGTQVTVSS | low polyreactivity
30 | QVQLVESGGGLVQAGGSLRLSCAASGGTFLSNAMGWYRQAPGKERELVAAISASSGSTYYADSVKGRFTISRDNAKNPVYLQMNSVKPEDTAVYYCAKERRASVVRYDYWGQGTQVTVSS | low polyreactivity
31 | QVQLVESGGGLVQAGGSLRLSCAASGSIFRINAMGWYRQAPGKERELVAAISTSGGTTYYADSVKGRFTISRDNAKNTVYLQMNSLKPEDTAVYYCAARRVTSPFGSDSWGQGTQVTVSS | low polyreactivity
32 | QVQLVESGGGLVQAGGSLRLSCAASGGIFVTYAMGWYRKAPGKERELLAAISANGGDTYYADSVKGRFTISRDNAKTSVYLQMNRLKPEDTAVYYCAADGFLPILHPVPWSYYYPFGYWGQGTHVTVSS | low polyreactivity
33 | QVQLVESGGGLVQAGGSLRLSCAASGSTIIYYAMGWYRQAPGKESELVATISTSGTSTYYADSVKGRFTISRDNAKNTVYLQMNSLKPEDTAVYYCNAVHRNWRQKFDYWGQGTQVTVSS | high polyreactivity
34 | QVQLVESGGGLVQAGGSHRLSCSASGSNFRDYAMGWYRQAPGKERELVAAISWSSSRTYYADSVKGRFTISRDNAKNTVYLQMNSLKPEDTAVYYCNKLSIWSYYFGPYGYDYWGQGTQVTVSS | low polyreactivity
35 | QVQLVESGGGLVQAGGSLRLICAASGTIFITNAMGWYRPAPGKERELVAAISGRGGSTYYADSVKGRFTISRDNAKNTVYLQMNSLKPEDTAVYYCNAYSYRVSGYDYWGQGTQVTVSS | high polyreactivity
36 | QFQLVESGGGLVQAGGSLRLSSAASGSIFYTNAMGWYRQAPGKEREFVAGITRRGTSTNYADSVKGRFTISRDNAKNSVYLQMNSLKPEVTAVYYCNARYYLYWGQGTQVTVSS | low polyreactivity
37 | QVQLVESGGGLVQAGGSLRLSCAASGYTLGDYAMGWYRQAPGKERELVAAISSGGITSYADSVKGRFTISRDNAKNTVYLQMNSLKPEDTAVYYCNAAIVGFTRAYQYDYWGQGTQVTVSS | high polyreactivity
38 | QVQLVESGGGLVQAGGSLRLSCAASGSTFYAYAMGWYRQAPGKGGELVAAIDSGGSTYYADSVKGRFTISRDNAKNTVYLQMNSLKPEDTAVYYCAVRHRYTRAYWGRDYWGQGTQVTVSS | low polyreactivity
39 | QVQLVESGGGLVQAGGSLRLSCAASGRIFPVNAMGWYRQAPGKERELVARISWRGGTYYADSVKGRFTISRDNAKNTVYLQMNSLKPEDTAVYYCAATLPSTSYWYHYGYWGQGTQVTVSS | high polyreactivity
40 | QVQLVESGGGFVQAGGRLRLSCAASGRTFKYYAMGWYRPAPGKDRELVAAISRGGSTNYADSVKGRFTISRDNAKNTVYLQLTSLNPEDTAVYYCAADQVTDYWWRGYEYWGQGTQVTVSS | low polyreactivity
41 | QVQLVESGGGLVQAGGSLRLSCAASGRTFYWYAMGWYRKAPGKERELVAAITSGGSTYYADSVKGRFTISRDNEKNTVYLQMNILKPEDTAVYYCGVDVDWWDGMDYWGQGTQVTVSS | high polyreactivity
42 | QVQLVESGGGLVQAGGSLRLSCAASGSIFGRNVMGWYRQAPGKERELVAAISEGGGRTYYADSVKGRFTISRDNAKNTVYLQMNSLKPEDTAVYYCAAAYFSSGYKYYYWGQGTQVTVSS | high polyreactivity
43 | QVQLVESGGGLVQAGGSLRLSCAASGYIFLRNAMGWSRQAPGKERELVASISSDDTSTHYADSVKGRFTISRDNAKNTVYLQMNSLKPEDTAVYYCAARNTPAYIDYNYWGQGTQVTVSS | low polyreactivity
